Results from paper PMC12445079.
Values belong to the binder of their own block, whether it stands above or below them.

Target: Bacillus subtilis GapA (glyceraldehyde-3-phosphate dehydrogenase), His-tagged (Bacillus subtilis) (UniProt P09124)
Sequence of UniProt P09124 (P09124 whole entry): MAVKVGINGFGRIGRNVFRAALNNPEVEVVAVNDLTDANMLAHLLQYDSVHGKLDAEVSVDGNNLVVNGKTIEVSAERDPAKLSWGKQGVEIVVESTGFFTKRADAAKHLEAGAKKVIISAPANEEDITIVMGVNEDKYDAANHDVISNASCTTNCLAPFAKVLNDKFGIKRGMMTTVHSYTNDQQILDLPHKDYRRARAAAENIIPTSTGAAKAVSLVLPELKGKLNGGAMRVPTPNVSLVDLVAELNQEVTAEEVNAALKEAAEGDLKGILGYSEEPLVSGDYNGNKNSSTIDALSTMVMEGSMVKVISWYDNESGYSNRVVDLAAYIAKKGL

- catalytic efficiency kcat/KM of GapA with E4P in the presence of HPr-G54D (GAPDH alone: 1.05): 730 M⁻¹ s⁻¹
- catalytic efficiency kcat/KM of GapA with G3P in the presence of HPr-G54D (GAPDH alone: 219): 68500 M⁻¹ s⁻¹
B1: Bacillus subtilis HPr-G54D, His-tagged (natural protein)
chain: MAQKTFKVTADSGIHARPATVLVQTASKYDADVNLEYNGKTVNLKSIMGVMSLDIAKGAEITISASGADENDALNALEETMKSEGLGE

- catalytic efficiency kcat/KM of GapA with E4P in the presence of HPr-S46E (GAPDH alone: 1.05): 2600 M⁻¹ s⁻¹
- catalytic efficiency kcat/KM of GapA with G3P in the presence of HPr-S46E (GAPDH alone: 219): 38800 M⁻¹ s⁻¹
B2: Bacillus subtilis HPr-S46E, His-tagged (natural protein)
chain: MAQKTFKVTADSGIHARPATVLVQTASKYDADVNLEYNGKTVNLKEIMGVMSLGIAKGAEITISASGADENDALNALEETMKSEGLGE

- catalytic efficiency kcat/KM of GapA with E4P in the presence of HPr (GAPDH alone: 1.05): 1880 M⁻¹ s⁻¹
- catalytic efficiency kcat/KM of GapA with G3P in the presence of HPr (GAPDH alone: 219): 57400 M⁻¹ s⁻¹
B3: Bacillus subtilis histidine-containing phosphocarrier protein (HPr), His-tagged (natural protein)
chain: MAQKTFKVTADSGIHARPATVLVQTASKYDADVNLEYNGKTVNLKSIMGVMSLGIAKGAEITISASGADENDALNALEETMKSEGLGE

- catalytic efficiency kcat/KM of GapA with E4P in the presence of HPr-G54D, S46E (GAPDH alone: 1.05): 3780 M⁻¹ s⁻¹
- catalytic efficiency kcat/KM of GapA with G3P in the presence of HPr-G54D, S46E (GAPDH alone: 219): 164000 M⁻¹ s⁻¹
B4: Bacillus subtilis HPr-S46E, G54D, His-tagged (natural protein)
chain: MAQKTFKVTADSGIHARPATVLVQTASKYDADVNLEYNGKTVNLKEIMGVMSLDIAKGAEITISASGADENDALNALEETMKSEGLGE
